From article PMC7754472, “RPW8.1 enhances the ethylene‐signaling pathway to feedback‐attenuate its mediated cell death and disease resistance in Arabidopsis”

B1: OBS3 (dsDNA)
DNA 1: TATGAGTCAATCTCTTGAATTGTCTTCATATAATTAAAACCACTCGTTAACTTGTTAA
DNA 2: TTAACAAGTTAACGAGTGGTTTTAATTATATGAAGACAATTCAAGAGATTGACTCATA
B2: OBS5 (dsDNA)
DNA 1: ATGTACATAGATTCCTCTATATTCACCTCGAGAGCTAAACAACTACTTTCAAAAA
DNA 2: TTTTTGAAAGTAGTTGTTTAGCTCTCGAGGTGAATATAGAGGAATCTATGTACAT
B3: OBS2 (dsDNA)
DNA 1: TTGCATATAGATCCAACGATCTCCTCTTACCTAGAAAAAGAGAGAGTTGTTGACCCGTA
DNA 2: TACGGGTCAACAACTCTCTCTTTTTCTAGGTAAGAGGAGATCGTTGGATCTATATGCAA
B4: mutant competitor I (OBS2, T/A-rich motif mutant) (dsDNA)
DNA 1: TTGCAGACAGATCCAACGATCTCCTCTTACCTCGAAAAAGAGAGAGTTGTTGACCCGTA
DNA 2: TACGGGTCAACAACTCTCTCTTTTTCGAGGTAAGAGGAGATCGTTGGATCTGTCTGCAA
B5: mutant competitor II (OBS2, GAG-motif mutant) (dsDNA)
DNA 1: TTGCATATAGATCCAACGATCTCCTCTTACCTAGAAAAAGACACAGTTGTTGACCCGTA
DNA 2: TACGGGTCAACAACTGTGTCTTTTTCTAGGTAAGAGGAGATCGTTGGATCTATATGCAA
B6: mutant competitor IV (OBS2, unnamed motif and TCT-motif mutant) (dsDNA)
DNA 1: TTGCATATAGATCCAACGATCTCGACTTACCTAGAAAAAGAGAGAGTTGTTGACCCGTA
DNA 2: TACGGGTCAACAACTCTCTCTTTTTCTAGGTAAGTCGAGATCGTTGGATCTATATGCAA
B7: mutant competitor III (OBS2, BOX-W1 mutant) (dsDNA)
DNA 1: TTGCATATAGATCCAACGATCTCCTCTTACCTAGAAAAAGAGAGAGTTGTACACCCGTA
DNA 2: TACGGGTGTACAACTCTCTCTTTTTCTAGGTAAGAGGAGATCGTTGGATCTATATGCAA
B8: OBS1 (dsDNA)
DNA 1: ACGTAATTCAATAATATTCTACGTAATTTAATACTCACGACAACTTGCATAT
DNA 2: ATATGCAAGTTGTCGTGAGTATTAAATTACGTAGAATATTATTGAATTACGT
B9: mutant competitor V (OBS1, T/A-rich motif mutant) (dsDNA)
DNA 1: ACGTAATTCAAGAAGATTCTACGTAATTCAAGACTCACGACAACTTGCATAT
DNA 2: ATATGCAAGTTGTCGTGAGTCTTGAATTACGTAGAATCTTCTTGAATTACGT
B10: OBS4 (dsDNA)
DNA 1: ACATAAAACTATTTAATATGGTTCCATCCTTCCATGTACATAGATTCCTCT
DNA 2: AGAGGAATCTATGTACATGGAAGGATGGAACCATATTAAATAGTTTTATGT

Columns and labels:
GST-ORA59 [1] = target: T1, GST-ORA59 (Arabidopsis thaliana, UniProt Q9LND1 1-244); assay: EMSA; Chemiluminescent EMSA kit (Beyotime) EMSA/Gel-Shift binding buffer; salt, pH and temperature not stated; conditions: protein: recombinant, tags: N-terminal GST (pGEX), blunt
GST-ORA59 [2] = target: T1, GST-ORA59; assay: competition; 5-, 25-, 50-fold excess vs biotin-OBS2; Chemiluminescent EMSA kit (Beyotime) EMSA/Gel-Shift binding buffer; salt, pH and temperature not stated; conditions: protein: recombinant; tags: N-terminal GST (pGEX); blunt
GST-ORA59 [3] = target: T1, GST-ORA59; assay: competition; 5-, 25-, 50-fold excess vs biotin-OBS1; Chemiluminescent EMSA kit (Beyotime) EMSA/Gel-Shift binding buffer; salt, pH and temperature not stated; conditions: protein: recombinant; tags: N-terminal GST (pGEX); blunt

T1 sequence (Q9LND1 whole entry): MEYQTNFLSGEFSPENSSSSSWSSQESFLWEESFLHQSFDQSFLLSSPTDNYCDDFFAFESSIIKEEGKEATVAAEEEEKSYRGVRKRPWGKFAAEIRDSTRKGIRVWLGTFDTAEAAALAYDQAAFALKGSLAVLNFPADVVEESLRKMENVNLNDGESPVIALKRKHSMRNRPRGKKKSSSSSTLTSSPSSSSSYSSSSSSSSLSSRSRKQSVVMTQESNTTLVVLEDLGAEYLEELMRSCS

Binder | binding result (GST-ORA59 [1]; label: 3' biotin) | binding result (GST-ORA59 [2]) | also measured
B1 | binds | – | –
B2 | binds | – | –
B3 | – | – | binding result (GST-ORA59 [1]; label: 3' biotin (probe)): binds
B4 | – | no binding | –
B5 | – | binds | –
B6 | – | binds | –
B7 | – | binds | –
B8 | – | – | binding result (GST-ORA59 [1]; label: 3' biotin (probe)): binds
B9 | – | – | binding result (GST-ORA59 [3]): no binding
B10 | binds | – | –
